Results on one protein are retold here after paper PMC3298459.

Substrate in series [1]: O=C1O[C@@H](COP(=O)(O)O)[C@H](O)[C@@H]1O
Briefly: purified protein. In kind it is biochemical, Halalkalibacterium halodurans. The settings on record: [Co/Co] form, 2.5 mM Bicine pH 8.3, 0.2 M NaCl, 1% DMSO.

Substrate in series [2]: O=C1O[C@H](COP(=O)(O)O)[C@H](O)[C@@H]1O
Briefly: purified protein. It counts as biochemical, Halalkalibacterium halodurans. The settings on record: [Co/Co] form, 2.5 mM Bicine pH 8.3, 0.2 M NaCl, 1% DMSO.

As usually defined, the Km is the concentration of substrate that gives half-maximal velocity. As usually defined, the kcat is the maximal rate divided by the concentration of active sites. For orientation: kcat/Km means the second-order rate constant that governs catalysis at low substrate concentration.

B1: Bh0225 (Halalkalibacterium halodurans C-125) (protein)
chain: MSFIRTLRGDINPEELGFTYSHEHIVCRPDYWVQRQEGDLLLDDKEKSKRDVEDFKRHGGNSIVDATAVDYGRDVGAVKAISDELDVHIIGTAGFNKSFLWNAKIKEELKPIIGGQYDTFAEWIDGSTIHDLTEFVVREVEEGLEGTPWKAGQVKFGTGYNRISPLEEKTLRAVARAHHETKAPIHSHTEVGTMALEQIELLKSEGINLEHVSIGHMDRNPDPYYHEQIAKTGAFLSFDGIGKIKYAPESTRIHCILELVKKGYDQQILISGDTARKTYYKHYDYGLGLEYIIAKWIPRFISEANHRGFDGEALIHTFFVENPARCFAFKL
Turning to B1, in the series “purified protein [1]”, the Km stood at 200 ± 20 µM, the kcat is 30 ± 1 s⁻¹ and the catalytic efficiency (kcat/Km) was determined as 150000 ± 15000 M⁻¹ s⁻¹. In the series “purified protein [2]”, the Michaelis constant (Km) was determined as 240 ± 20 µM, the turnover number (kcat) was 24 ± 1 s⁻¹ and the kcat/Km is 100000 ± 10000 M⁻¹ s⁻¹.
